Test results from patent CN112125972A (SINOCELLTECH LTD, dated 2020).

Columns and labels:
Assay in all cases: indirect ELISA, VLP coated at 2 μg/mL
HPV56 VLP = molecular target: T1, HPV56 VLP (Human papillomavirus type 56, UniProt P36743 36-534)
T1 construct: also called HPV56完整VLP蛋白
T1 sequence: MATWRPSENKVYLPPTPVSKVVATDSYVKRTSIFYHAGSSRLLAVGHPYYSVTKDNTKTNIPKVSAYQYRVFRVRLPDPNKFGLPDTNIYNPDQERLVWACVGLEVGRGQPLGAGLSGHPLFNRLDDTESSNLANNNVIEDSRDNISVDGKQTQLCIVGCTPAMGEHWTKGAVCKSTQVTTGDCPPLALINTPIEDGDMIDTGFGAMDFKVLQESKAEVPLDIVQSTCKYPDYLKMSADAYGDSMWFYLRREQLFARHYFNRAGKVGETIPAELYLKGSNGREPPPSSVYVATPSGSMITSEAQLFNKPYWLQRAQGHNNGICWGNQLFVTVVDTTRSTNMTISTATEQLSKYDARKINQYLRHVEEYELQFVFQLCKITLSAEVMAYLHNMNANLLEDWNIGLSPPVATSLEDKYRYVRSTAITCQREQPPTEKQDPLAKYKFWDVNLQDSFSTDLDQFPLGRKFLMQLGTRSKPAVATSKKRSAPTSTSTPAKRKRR

HPV52 VLP = molecular target: T2, HPV52 VLP (Human papillomavirus type 52, UniProt Q05138 27-529)
T2 construct: also called HPV52完整VLP蛋白
T2 sequence: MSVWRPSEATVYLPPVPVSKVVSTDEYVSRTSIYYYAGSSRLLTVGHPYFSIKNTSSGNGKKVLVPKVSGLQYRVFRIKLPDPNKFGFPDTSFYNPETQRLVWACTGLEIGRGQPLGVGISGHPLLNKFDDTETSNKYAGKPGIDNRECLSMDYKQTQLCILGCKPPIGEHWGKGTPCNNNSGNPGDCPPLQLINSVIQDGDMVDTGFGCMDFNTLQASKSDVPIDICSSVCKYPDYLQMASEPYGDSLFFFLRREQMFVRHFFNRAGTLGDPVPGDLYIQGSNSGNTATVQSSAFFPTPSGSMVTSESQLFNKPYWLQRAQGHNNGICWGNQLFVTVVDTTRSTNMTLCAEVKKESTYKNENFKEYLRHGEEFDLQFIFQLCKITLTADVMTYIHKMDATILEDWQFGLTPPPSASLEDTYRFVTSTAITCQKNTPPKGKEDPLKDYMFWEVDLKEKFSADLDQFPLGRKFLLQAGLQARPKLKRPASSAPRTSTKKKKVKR

HPV58 VLP = molecular target: T3, HPV58 VLP (Human papillomavirus type 58, UniProt P26535 27-524)
T3 construct: also called HPV58完整VLP蛋白
T3 sequence: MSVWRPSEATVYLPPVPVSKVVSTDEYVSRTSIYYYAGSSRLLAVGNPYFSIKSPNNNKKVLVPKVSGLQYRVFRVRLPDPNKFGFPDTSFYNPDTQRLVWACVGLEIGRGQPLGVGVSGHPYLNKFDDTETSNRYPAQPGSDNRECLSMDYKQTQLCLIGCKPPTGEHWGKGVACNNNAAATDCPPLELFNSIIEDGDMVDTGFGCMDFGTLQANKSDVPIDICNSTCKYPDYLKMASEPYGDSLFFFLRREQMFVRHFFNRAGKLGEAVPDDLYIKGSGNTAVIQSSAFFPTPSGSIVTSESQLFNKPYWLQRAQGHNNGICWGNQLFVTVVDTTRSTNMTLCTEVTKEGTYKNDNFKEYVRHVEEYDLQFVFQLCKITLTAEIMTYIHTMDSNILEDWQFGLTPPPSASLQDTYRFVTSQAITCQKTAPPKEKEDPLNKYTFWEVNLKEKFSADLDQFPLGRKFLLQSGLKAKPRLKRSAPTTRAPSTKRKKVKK

Measured: binding result

B1: HPV 16 R001 (antibody, V domains shown)
VH: QSVKESEGRLVTPGTPLTLTCTASGFTMSRYHMTWVRQAPGKGLEWIGIIYARNSDTYYANWAKGRFTISKTSTTVDLKITSPTIEDTATYFCARVDSDSSGAFDRLDLWGQGTLVTVSS
VL: DPMLTQTAASVEVAVGGTVTIKCQASQSIGGYLSWYQQKPGQRPKLLIYRASTLASGVPSRFKGSGSGTEYTLTFSGVECADAAAYYCQQGYTSSDINNAFGGGTEVVVK
notes: An HRP-labelled form served as detection antibody in the sandwich ELISA; also called HPV16.001; 单克隆抗体HPV 16 R001
no binding (tested: 10ng/mL): all assays above
